Assay results reported in US20070185311A1 (EPIX MEDICAL INC A DELAWARE, published 2007).
Values belong to the binder of their own block, whether it stands above or below them. Starred links: 1 amine or outer side, 2 acyl side, 3 side chain; linkers in the order of their positions; H or OH if unused. Positions of bridges follow the written chain, without caps; N, C: chain ends. Non-standard residues stand in square brackets, D forms with d. Primed or numbered codes have the meaning given here. No end group written: not given here. Tyr(3-NO2) = N[C@@H](Cc1ccc(O)c([N+](=O)[O-])c1)C(=O)O; Phe(4-OMe) = COc1ccc(C[C@H](N[*:1])C(=O)[*:2])cc1; Phe(3-CF3) = N[C@@H](Cc1cccc(C(F)(F)F)c1)C(=O)O; Phe(4-CF3) = N[C@@H](Cc1ccc(C(F)(F)F)cc1)C(=O)O; Bpa = N[C@@H](Cc1ccc(C(=O)c2ccccc2)cc1)C(=O)O; Phe(4-CH2NH2) = NCc1ccc(C[C@H](N)C(=O)O)cc1; Tyr(3-Cl) = N[C@@H](Cc1ccc(O)c(Cl)c1)C(=O)O; Bip = N[C@@H](Cc1ccc(-c2ccccc2)cc1)C(=O)O; Tyr(3-I) = N[C@@H](Cc1ccc(O)c(I)c1)C(=O)O; Phe(3-OMe) = COc1cccc(C[C@H](N)C(=O)O)c1; Phe(4-Br) = N[C@@H](Cc1ccc(Br)cc1)C(=O)O; Phe(4-CN) = N#Cc1ccc(C[C@H](N)C(=O)O)cc1; Phe(4-NH2) = Nc1ccc(C[C@H](N)C(=O)O)cc1; Phe(2-OMe) = COc1ccccc1C[C@H](N)C(=O)O; Phe(3-Me) = Cc1cccc(C[C@H](N)C(=O)O)c1; Phe(4-F) = N[C@@H](Cc1ccc(F)cc1)C(=O)O; Phe(4-I) = N[C@@H](Cc1ccc(I)cc1)C(=O)O; Phe(4-Me) = Cc1ccc(C[C@H](N)C(=O)O)cc1; 1Nal = N[C@@H](Cc1cccc2ccccc12)C(=O)O; Hyp = O=C(O)[C@@H]1C[C@@H](O)CN1; hPhe = N[C@@H](CCc1ccccc1)C(=O)O; 3Pal = N[C@@H](Cc1cccnc1)C(=O)O; 4Pal = N[C@@H](Cc1ccncc1)C(=O)O; Phe(4-Et)′ = not defined here; Tle = CC(C)(C)[C@H](N)C(=O)O; Tyr(2-F)′ = not defined here; Nle = CCCC[C@H](N)C(=O)O; MTyr = not defined here; nTyr = not defined here; Cmp = not defined here

Molecular target: DD(E) fragment of fibrin
Experiment: affinity to DD(E) fragment of fibrin

B2: MTyr-H-C-Hyp-Y(3-I)-D-L-C-H-I (peptide)
peptide: [MTyr]HC[Hyp][Tyr(3-I)]DLCHI
modifications: disulfide 3-8 (inferred); reading uncertain
Kd: < 100 nM

B3: L-P-C-D-Y-Y-G-T-C-Me-Bip-D (peptide)
peptide: LPCDYYGTCXD
modifications: Me-Bip at 10
Kd: < 10000 nM

B4: 4Pal-H-C-Hyp-Y(3-I)-D-L-C-H-I (peptide)
peptide: [4Pal]HC[Hyp][Tyr(3-I)]DLCHI
modifications: disulfide 3-8 (inferred)
Kd: < 100 nM

B5: DopaMe2-H-C-Hyp-Y(3-I)-D-L-C-H-I (peptide)
peptide: [DopaMe2]HC[Hyp][Tyr(3-I)]DLCHI
modifications: disulfide 3-8 (inferred)
Kd: < 100 nM

B6: L-P-C-D-Y-Y-G-T-C-Bip-D (peptide)
peptide: LPCDYYGTCXD
modifications: Bip at 10
Kd: < 10000 nM

B7: F(4-CN)-H-C-Hyp-Y(3-I)-D-L-C-H-I (peptide)
peptide: [Phe(4-CN)]HC[Hyp][Tyr(3-I)]DLCHI
modifications: disulfide 3-8 (inferred)
Kd: < 100 nM

B10: F(4-OMe)-H(Bzl)-C-Hyp-Y(3-Cl)-D-L-C-H-I (peptide)
peptide: [Phe(4-OMe)][His(Bzl)]C[Hyp][Tyr(3-Cl)]DLCHI
modifications: disulfide 3-8 (inferred)
Kd: < 100 nM

B11: L-P-C-D-Y-Y-G-T-C-MeL-Cmp (peptide)
peptide: LPCDYYGTC[MeL][Cmp]
modifications: cysteine pairing not given here; reading uncertain; also: printed as L-P-C-D-Y-Y-G-T-C-MeL-Cmp
Kd: < 10000 nM

B12: F-H-C-Hyp-Y(3-I)-D-L-C-H-Nle (peptide)
peptide: FHC[Hyp][Tyr(3-I)]DLCH[Nle]
modifications: disulfide 3-8 (inferred); not fully specified
Kd: < 100 nM

B13: F(3-OMe)-H-C-Hyp-Y(3-I)-D-L-C-H-I (peptide)
peptide: [Phe(3-OMe)]HC[Hyp][Tyr(3-I)]DLCHI
modifications: disulfide 3-8 (inferred)
Kd: < 100 nM

B14: F(4-OMe)-H-C-Hyp-Y(3-Cl)-D-L-C-H-Bpa-L (peptide)
peptide: [Phe(4-OMe)]HC[Hyp][Tyr(3-Cl)]DLCH[Bpa]L
modifications: disulfide 3-8 (inferred)
Kd: < 100 nM

B16: F(4-Br)-H-C-Hyp-Y(3-I)-D-L-C-H-I (peptide)
peptide: [Phe(4-Br)]HC[Hyp][Tyr(3-I)]DLCHI
modifications: disulfide 3-8 (inferred)
Kd: < 100 nM

B21: F(4-OMe)-H-C-Hyp-Y(3-I)-D-L-C-H-I (peptide)
peptide: [Phe(4-OMe)]HC[Hyp][Tyr(3-I)]DLCHI
modifications: disulfide 3-8 (inferred)
Kd: < 100 nM

B22: F(4-CH2NH2)-H-C-Hyp-Y(3-I)-D-L-C-H-I (peptide)
peptide: [Phe(4-CH2NH2)]HC[Hyp][Tyr(3-I)]DLCHI
modifications: disulfide 3-8 (inferred)
Kd: < 100 nM

B24: F-H-C-Hyp-Y(3-I)-D-L-C-H-Tle (peptide)
peptide: FHC[Hyp][Tyr(3-I)]DLCH[Tle]
modifications: disulfide 3-8 (inferred)
Kd: < 100 nM

B28: F-H-C-Hyp-Y(3-Cl)-D-L-C-H-I-L (peptide)
peptide: FHC[Hyp][Tyr(3-Cl)]DLCHIL
modifications: disulfide 3-8 (inferred)
Kd: < 100 nM

B29: F-H-C-Hyp-Y(3-I)-D-L-C-H-F(4-CF3) (peptide)
peptide: FHC[Hyp][Tyr(3-I)]DLCH[Phe(4-CF3)]
modifications: disulfide 3-8 (inferred)
Kd: < 100 nM

B30: F(3-CF3)-H-C-Hyp-Y(3-I)-D-L-C-H-I (peptide)
peptide: [Phe(3-CF3)]HC[Hyp][Tyr(3-I)]DLCHI
modifications: disulfide 3-8 (inferred)
Kd: < 100 nM

B31: F-H-C-Hyp-Y(3-I)-D-L-C-H-Bip (peptide)
peptide: FHC[Hyp][Tyr(3-I)]DLCH[Bip]
modifications: disulfide 3-8 (inferred)
Kd: < 100 nM

B32: F(4-F)-H-C-Hyp-Y(3-I)-D-L-C-H-I (peptide)
peptide: [Phe(4-F)]HC[Hyp][Tyr(3-I)]DLCHI
modifications: disulfide 3-8 (inferred)
Kd: < 100 nM

B33: Y(2-F)-H-C-Hyp-Y(3-I)-D-L-C-H-I (peptide)
peptide: [Tyr(2-F)′]HC[Hyp][Tyr(3-I)]DLCHI
modifications: disulfide 3-8 (inferred)
Kd: < 100 nM

B34: F-H-C-Hyp-Y(3-I)-D-L-C-H-F(4-Et) (peptide)
peptide: FHC[Hyp][Tyr(3-I)]DLCH[Phe(4-Et)′]
modifications: disulfide 3-8 (inferred)
Kd: < 100 nM

B36: F(2-OMe)-H-C-Hyp-Y(3-I)-D-L-C-H-I (peptide)
peptide: [Phe(2-OMe)]HC[Hyp][Tyr(3-I)]DLCHI
modifications: disulfide 3-8 (inferred)
Kd: < 100 nM

B37: F(4-I)-H-C-Hyp-Y(3-I)-D-L-C-H-I (peptide)
peptide: [Phe(4-I)]HC[Hyp][Tyr(3-I)]DLCHI
modifications: disulfide 3-8 (inferred)
Kd: < 100 nM

B39: F-H-C-Hyp-Y(3-I)-D-L-C-3Pal-I (peptide)
peptide: FHC[Hyp][Tyr(3-I)]DLC[3Pal]I
modifications: disulfide 3-8 (inferred)
Kd: < 100 nM

B40: Y(3-I)-H-C-Hyp-Y(3-I)-D-L-C-H-I (peptide)
peptide: [Tyr(3-I)]HC[Hyp][Tyr(3-I)]DLCHI
modifications: disulfide 3-8 (inferred)
Kd: < 100 nM

B41: F-H-C-Hyp-Y(3-I)-D-L-C-H-Bpa (peptide)
peptide: FHC[Hyp][Tyr(3-I)]DLCH[Bpa]
modifications: disulfide 3-8 (inferred)
Kd: < 100 nM

B43: F(4-Me)-H-C-Hyp-Y(3-I)-D-L-C-H-I (peptide)
peptide: [Phe(4-Me)]HC[Hyp][Tyr(3-I)]DLCHI
modifications: disulfide 3-8 (inferred)
Kd: < 100 nM

B46: F(4-OMe)-H-C-Hyp-Y(3-I)-D-L-C-H-Bpa-L (peptide)
peptide: [Phe(4-OMe)]HC[Hyp][Tyr(3-I)]DLCH[Bpa]L
modifications: disulfide 3-8 (inferred)
Kd: < 100 nM

B49: Hfe-H-C-Hyp-Y(3-I)-D-L-C-H-I (peptide)
peptide: [hPhe]HC[Hyp][Tyr(3-I)]DLCHI
modifications: disulfide 3-8 (inferred)
Kd: < 100 nM

B50: W-E-C-Hyp-Y(3-Cl)-G-L-C-W-I-Q (peptide)
peptide: WEC[Hyp][Tyr(3-Cl)]GLCWIQ
modifications: disulfide 3-8 (inferred)
Kd: < 100 nM

B51: F(4-OMe)-H(Bzl)-C-Hyp-Y(3-I)-D-L-C-H-Bpa (peptide)
peptide: [Phe(4-OMe)][His(Bzl)]C[Hyp][Tyr(3-I)]DLCH[Bpa]
modifications: disulfide 3-8 (inferred)
Kd: < 100 nM

B52: 1Nal-H-C-Hyp-Y(3-I)-D-L-C-H-I (peptide)
peptide: [1Nal]HC[Hyp][Tyr(3-I)]DLCHI
modifications: disulfide 3-8 (inferred)
Kd: < 100 nM

The next lines start with the values.

Kd: < 100 nM
B1: F(4-NH2)-H-C-Hyp-Y(3-I)-D-L-C-H-I (peptide)
peptide: [Phe(4-NH2)]HC[Hyp][Tyr(3-I)]DLCHI
modifications: disulfide 3-8 (inferred)

Kd: < 100 nM
B8: F-H-C-Hyp-Y(3-I)-D-L-C-H-I-L (peptide)
peptide: FHC[Hyp][Tyr(3-I)]DLCHIL
modifications: disulfide 3-8 (inferred)

Kd: < 100 nM
B9: F-H-C-Hyp-Y(3-I)-D-L-C-H-F(3-CF3) (peptide)
peptide: FHC[Hyp][Tyr(3-I)]DLCH[Phe(3-CF3)]
modifications: disulfide 3-8 (inferred)

Kd: < 100 nM
B15: 3Pal-H-C-Hyp-Y(3-I)-D-L-C-H-I (peptide)
peptide: [3Pal]HC[Hyp][Tyr(3-I)]DLCHI
modifications: disulfide 3-8 (inferred)

Kd: < 100 nM
B17: F-H-C-Hyp-Y(3-I)-D-L-C-H-Hfe (peptide)
peptide: FHC[Hyp][Tyr(3-I)]DLCH[hPhe]
modifications: disulfide 3-8 (inferred)

Kd: < 100 nM
B18: F(4-OMe)-H-C-Hyp-Y(3-I)-D-L-C-H-Bpa (peptide)
peptide: [Phe(4-OMe)]HC[Hyp][Tyr(3-I)]DLCH[Bpa]
modifications: disulfide 3-8 (inferred)

Kd: < 100 nM
B19: F-H-C-Hyp-Y(3-I)-D-L-C-H-I (peptide)
peptide: FHC[Hyp][Tyr(3-I)]DLCHI
modifications: disulfide 3-8 (inferred)

Kd: < 100 nM
B20: F(3-Me)-H-C-Hyp-Y(3-I)-D-L-C-H-I (peptide)
peptide: [Phe(3-Me)]HC[Hyp][Tyr(3-I)]DLCHI
modifications: disulfide 3-8 (inferred)

Kd: < 100 nM
B23: F-H(Bzl)-C-Hyp-Y(3-Cl)-D-L-C-H-I-L (peptide)
peptide: F[His(Bzl)]C[Hyp][Tyr(3-Cl)]DLCHIL
modifications: disulfide 3-8 (inferred)

Kd: < 100 nM
B25: F(34-F2)-H-C-Hyp-Y(3-I)-D-L-C-H-I (peptide)
peptide: [Phe(34-F2)]HC[Hyp][Tyr(3-I)]DLCHI
modifications: disulfide 3-8 (inferred)

Kd: < 100 nM
B26: F(4-OMe)-H(Bzl)-C-Hyp-Y(3-I)-D-L-C-H-I (peptide)
peptide: [Phe(4-OMe)][His(Bzl)]C[Hyp][Tyr(3-I)]DLCHI
modifications: disulfide 3-8 (inferred)

Kd: < 100 nM
B27: F(4-OMe)-H-C-Hyp-Y(3-Cl)-D-L-C-H-I-L (peptide)
peptide: [Phe(4-OMe)]HC[Hyp][Tyr(3-Cl)]DLCHIL
modifications: disulfide 3-8 (inferred)

Kd: < 100 nM
B35: nTyr-H-C-Hyp-Y(3-I)-D-L-C-H-I (peptide)
peptide: [nTyr]HC[Hyp][Tyr(3-I)]DLCHI
modifications: disulfide 3-8 (inferred); reading uncertain

Kd: < 100 nM
B38: F(4-CF3)-H-C-Hyp-Y(3-I)-D-L-C-H-I (peptide)
peptide: [Phe(4-CF3)]HC[Hyp][Tyr(3-I)]DLCHI
modifications: disulfide 3-8 (inferred)

Kd: < 100 nM
B42: F(4-OMe)-H-C-Hyp-Y(3-Cl)-D-L-C-H-I (peptide)
peptide: [Phe(4-OMe)]HC[Hyp][Tyr(3-Cl)]DLCHI
modifications: disulfide 3-8 (inferred)

Kd: < 10000 nM
B44: L-P-C-D-Y-Y-G-T-C-Bip-dD (peptide)
peptide: LPCDYYGTCXD
modifications: Bip at 10; dD at 11

Kd: < 100 nM
B45: F-H-C-Hyp-Y(3-I)-D-L-C-H-F(4-OMe) (peptide)
peptide: FHC[Hyp][Tyr(3-I)]DLCH[Phe(4-OMe)]
modifications: disulfide 3-8 (inferred)

Kd: < 100 nM
B47: Y(3-NO2)-H-C-Hyp-Y(3-I)-D-L-C-H-I (peptide)
peptide: [Tyr(3-NO2)]HC[Hyp][Tyr(3-I)]DLCHI
modifications: disulfide 3-8 (inferred)

Kd: < 100 nM
B48: F-H-C-Hyp-Y(3-Cl)-D-L-C-H-I (peptide)
peptide: FHC[Hyp][Tyr(3-Cl)]DLCHI
modifications: disulfide 3-8 (inferred)
